For 2 molecules, Kd results are on record in patent publication JP2021136920A.

In general, Kd refers to the concentration at which binding is half-saturated.

Assay [1] concerns the target A−peakを架橋させたBSA(A−peak−BSA) (bovine) (UniProt P02769). The assay is described as follows: SPR, Biacore T200; A-peak-BSA amine-coupled on CM5 (72 RU), antibody 0.1953-50 nM, 1:1 binding model.
Assay [2] has as its target Glycer−AGEs由来新規構造体修飾―ウシ血清アルブミン(GAL13−BSA) (bovine) (UniProt P02769). Briefly: SPR, Biacore T200; GAL13-BSA amine-coupled on CM5.
The target of assay [3] is グリセルアルデヒド由来AGEs含有ウシ血清アルブミン(Glycer−AGEs−BSA) (bovine) (UniProt P02769). Briefly: SPR, Biacore T200; Glycer-AGEs-BSA amine-coupled on CM5, antibody 0-400 nM. Background: SPR reads the build-up and loss of mass on a sensor chip optically.

B1: 新規モノクローナル抗体PB−1 (antibody, V domains shown)
VH: EVRLQQSGPELVKPGTSVKISCKASGYSFTGYYMHWVKQSPVKSLEWIGRIIPYNGATSYNQNFKDKASLTVDKSSRTAYMDLHSLTSEDSAVYYCARSRYYGRAPYYFDYWGQGTTLTVSS
VL: DVVVTQTPLSLPVSLGDQASISCRSSQSIVHSNGNTYLEWYLQKPGQSPKLLIYKVSNRFSGVPDRISGSGSGTDFTLKISRVEAGDLGVYSCFQGSHVPFTFGSGTKLEIK
In turn, B1 gave a dissociation constant Kd in assay [1] of 4.15 nM.

B2: 新規モノクローナル抗体SJ−5 (antibody, V domains shown)
VH: EVMLVESGGRLVKPGGSLKLSCAASGFTFSSYGMSWVRQTPEKRLEWVATISGGGSYTYYPDSVKGRFTISRDNVKNNLYLQMSSLRSEDTALYYCARRGAYGDYGWFAYWGQGTLVTVSA
VL: DIVLTQSPATLSVTPGDSVSLSCRASQSINNNLHWYQQKSHESPRLLIKCASQSISGIPSRFSGSGSGTDFTLSINSVETEDFGMYFCQQSNSWPLTFGAGTKLELK
Turning to B2, the Kd was found to be 87.5 nM in assay [2] and 57.4 nM in assay [3].
